Test results from paper PMC12013264 (mSystems, 2025).
In brackets after ≈: the same amount, converted by molar mass. Like-named read-outs stand apart in the source and are kept apart here.

Tests used:
[1] = system: T1, E. coli DH10B carrying KPC-3-Tn4401a-pET28a; experiment: microbe, parasite or virus in culture; design: species or system E. coli DH10B or K. pneumoniae; CLSI standard broth microdilution MIC in triplicate, median values; conditions: Escherichia coli
T1 construct: DH10B full-length blaKPC-3 under Tn4401a promoter in pET28a
Excerpt: (§1) The blaKPC amplicons (full length) were cloned into the Tn4401a-pET28a plasmid between the BamHI (as the 5′ end upstream) and XbaI (as the 3′ end downstream) restriction sites, which is the opposite direction of conventional induced expression for removing the His-tag expression. This insertion was downstream of the blaKPC Tn4401a promoter. The Tn4401a promoter was inserted between the EcoRI and BamHI sites. KPC expression was achieved by inserting the natural promoter Tn4401a upstream of the blaKPC gene, thus avoiding the use of the pET-28a vector’s T7 promoter and the resulting His-tag fusion. E. coli DH10B strains containing the generated KPCs-Tn4401a-pET28a plasmid underwent antimicrobial susceptibility testing in triplicate using the standard broth microdilution, following the Clinical and Laboratory Standards Institute (CLSI) recommendations (CLSI M100-S34) .

[2] = system: T2, E. coli DH10B carrying KPC-2-Tn4401a-pET28a; experiment: microbe, parasite or virus in culture; design: species or system E. coli DH10B or K. pneumoniae; CLSI standard broth microdilution MIC in triplicate, median values; conditions: Escherichia coli
T2 construct: DH10B full-length blaKPC-2 under Tn4401a promoter in pET28a
Excerpt: as §1

[3] = system: T3, Klebsiella pneumoniae Kpn with KPC-3; experiment: microbe, parasite or virus in culture; design: species or system E. coli DH10B or K. pneumoniae; CLSI standard broth microdilution MIC in triplicate, median values
T3 construct: K. pneumoniae producing KPC-3, positive control

[4] = system: T4, E. coli DH10B; experiment: microbe, parasite or virus in culture; design: species or system E. coli DH10B or K. pneumoniae; CLSI standard broth microdilution MIC in triplicate, median values; conditions: Escherichia coli
T4 construct: DH10B empty plasmid control
Excerpt: as §1, with “M100-S34) . Klebsiella pneumoniae expressing KPC-3 and E. coli DH10B containing an empty plasmid served as positive and negative controls, respectively.” for “M100-S34) .”

[5] = system: Cc1nnc(SCC2=C(C(=O)O)N3C(=O)[C@@H](NC(=O)Cn4cnnn4)[C@H]3SC2)s1; experiment: purified protein; conditions: 100 mM sodium phosphate, pH 7.0, 37 °C
[6] = system: C[C@@H](O)[C@H]1C(=O)N2C(C(=O)O)=C(S[C@@H]3CN[C@H](C(=O)N(C)C)C3)[C@H](C)[C@H]12; experiment: purified protein; conditions: 100 mM sodium phosphate, pH 7.0, 37 °C
[7] = system: CC(C)(O/N=C(\C(=O)N[C@@H]1C(=O)N2C(C(=O)[O-])=C(C[n+]3ccccc3)CS[C@H]12)c1csc(N)n1)C(=O)O; experiment: purified protein; conditions: 100 mM sodium phosphate, pH 7.0, 37 °C
[8] = system: CO/N=C(\C(=O)N[C@@H]1C(=O)N2C(C(=O)[O-])=C(C[N+]3(C)CCCC3)CS[C@H]12)c1csc(N)n1; experiment: purified protein; conditions: 100 mM sodium phosphate, pH 7.0, 37 °C
[9] = system: C[C@@H](O)[C@H]1C(=O)N2C(C(=O)O)=C(SCCN=CN)C[C@H]12; experiment: purified protein; conditions: 100 mM sodium phosphate, pH 7.0, 37 °C
[10] = system: CCN1CCN(C(=O)N[C@@H](C(=O)N[C@@H]2C(=O)N3[C@@H]2SC(C)(C)[C@@H]3C(=O)O)c2ccccc2)C(=O)C1=O; experiment: purified protein; conditions: 100 mM sodium phosphate, pH 7.0, 37 °C
[11] = target: T5, KPC-3 (Klebsiella pneumoniae, UniProt Q93DC4); experiment: isothermal titration calorimetry; format: binding
T5 construct: gene bla; signal peptide (1-29) removed, KPC30-293 in pET28a, E. coli BL21 Rosetta-gami DE3, His-tag cut with thrombin
Excerpt: isothermal titration calorimetry on KPC-3

T5 sequence (Q93DC4 30-293 limits assumed): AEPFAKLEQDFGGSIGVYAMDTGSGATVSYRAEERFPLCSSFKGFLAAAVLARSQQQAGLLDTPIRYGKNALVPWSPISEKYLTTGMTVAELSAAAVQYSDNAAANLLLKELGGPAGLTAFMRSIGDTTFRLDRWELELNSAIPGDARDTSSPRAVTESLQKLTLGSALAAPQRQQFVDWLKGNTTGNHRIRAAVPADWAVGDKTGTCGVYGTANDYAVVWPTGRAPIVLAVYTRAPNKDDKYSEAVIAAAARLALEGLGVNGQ

Cc1nnc(SCC2=C(C(=O)O)N3C(=O)[C@@H](NC(=O)Cn4cnnn4)[C@H]3SC2)s1 [cefazolin]
MIC ([1]; read-out: MIC (mg/L) ^a / CZO): 256 mg/L (≈ 563 µM)
MIC ([2]; read-out: MIC (mg/L)^a / CZO): 256 mg/L (≈ 563 µM)
MIC ([3]; read-out: MIC (mg/L)^a / CZO): > 256 mg/L
MIC ([4]; read-out: MIC (mg/L)^a / CZO): 2 mg/L (≈ 4.4 µM)

C[C@H]1[C@H](NC(=O)/C(=N\OC(C)(C)C(=O)O)c2csc(N)n2)C(=O)N1S(=O)(=O)O [aztreonam]
MIC ([4]; read-out: MIC (mg/L)^a / ATM): < 0.125 mg/L

CO/N=C(\C(=O)N[C@@H]1C(=O)N2C(C(=O)O)=C(COC(N)=O)CS[C@H]12)c1ccco1 [cefuroxime]
MIC ([1]; read-out: MIC (mg/L) ^a / CXM): > 256 mg/L
MIC ([2]; read-out: MIC (mg/L)^a / CXM): > 256 mg/L
MIC ([3]; read-out: MIC (mg/L)^a / CXM): > 256 mg/L
MIC ([4]; read-out: MIC (mg/L)^a / CXM): 4 mg/L (≈ 9.43 µM)

CO/N=C(\C(=O)N[C@@H]1C(=O)N2C(C(=O)O)=C(CSc3nc(=O)c(O)nn3C)CS[C@H]12)c1csc(N)n1 [ceftriaxone]
MIC ([4]; read-out: MIC (mg/L)^a / CRO): < 0.125 mg/L

C[C@@H](O)[C@H]1C(=O)N2C(C(=O)O)=C(SCCN=CN)C[C@H]12 [imipenem]
MIC ([1]; read-out: MIC (mg/L) ^a / IPM): 2 mg/L (≈ 6.68 µM)
MIC ([2]; read-out: MIC (mg/L)^a / IPM): 1 mg/L (≈ 3.34 µM)
MIC ([3]; read-out: MIC (mg/L)^a / IPM): 16 mg/L (≈ 53.4 µM)
MIC ([4]; read-out: MIC (mg/L)^a / IPM): 0.25 mg/L (≈ 0.835 µM)

CC(C)(O/N=C(\C(=O)N[C@@H]1C(=O)N2C(C(=O)[O-])=C(C[n+]3ccccc3)CS[C@H]12)c1csc(N)n1)C(=O)O [ceftazidime]
MIC ([1]; read-out: MIC (mg/L) ^a / CAZ): 64 mg/L (≈ 117 µM)
MIC ([2]; read-out: MIC (mg/L)^a / CAZ): 8 mg/L (≈ 14.6 µM)
MIC ([3]; read-out: MIC (mg/L)^a / CAZ): > 256 mg/L
MIC ([4]; read-out: MIC (mg/L)^a / CAZ): 0.25 mg/L (≈ 0.457 µM)

CO/N=C(\C(=O)N[C@@H]1C(=O)N2C(C(=O)[O-])=C(C[N+]3(C)CCCC3)CS[C@H]12)c1csc(N)n1 [cefepime]
MIC ([1]; read-out: MIC (mg/L) ^a / FEP): 8 mg/L (≈ 16.6 µM)
MIC ([2]; read-out: MIC (mg/L)^a / FEP): 4 mg/L (≈ 8.32 µM)
MIC ([3]; read-out: MIC (mg/L)^a / FEP): > 256 mg/L
MIC ([4]; read-out: MIC (mg/L)^a / FEP): < 0.125 mg/L

CCN1CCN(C(=O)N[C@@H](C(=O)N[C@@H]2C(=O)N3[C@@H]2SC(C)(C)[C@@H]3C(=O)O)c2ccccc2)C(=O)C1=O [piperacillin]
MIC ([1]; read-out: MIC (mg/L) ^a / PIP): > 256 mg/L
MIC ([2]; read-out: MIC (mg/L)^a / PIP): > 256 mg/L
MIC ([3]; read-out: MIC (mg/L)^a / PIP): > 256 mg/L
MIC ([4]; read-out: MIC (mg/L)^a / PIP): 2 mg/L (≈ 3.86 µM)

KPC-3 (Klebsiella pneumoniae)
Km [5]: 368 ± 16 µM
kcat [5]: 61 ± 2 s⁻¹
kcat/Km [5]: 170000 ± 13000 M⁻¹ s⁻¹
Km [6]: 24 ± 1 µM
kcat [6]: 5.7 ± 0.4 s⁻¹
kcat/Km [6]: 230000 ± 16000 M⁻¹ s⁻¹
Km [7]: 233 ± 19 µM
kcat [7]: 2.7 ± 0.2 s⁻¹
kcat/Km [7]: 11000 ± 1200 M⁻¹ s⁻¹
Km [8]: 512 ± 48 µM
kcat [8]: 4.5 ± 0.3 s⁻¹
kcat/Km [8]: 8900 ± 400 M⁻¹ s⁻¹
Km [9]: 64 ± 3 µM
kcat [9]: 33 ± 0.7 s⁻¹
kcat/Km [9]: 520000 ± 34000 M⁻¹ s⁻¹
Km [10]: 1,097 ± 84 μM
kcat [10]: 5.2 ± 0.1 s⁻¹
kcat/Km [10]: 4800 ± 400 M⁻¹ s⁻¹

C[C@@H](O)[C@H]1C(=O)N2C(C(=O)O)=C(S[C@@H]3CN[C@H](C(=O)N(C)C)C3)[C@H](C)[C@H]12 [meropenem]
MIC ([1]; read-out: MIC (mg/L) ^a / MEM): 0.25 mg/L (≈ 0.652 µM)
MIC ([2]; read-out: MIC (mg/L)^a / MEM): 0.25 mg/L (≈ 0.652 µM)
MIC ([3]; read-out: MIC (mg/L)^a / MEM): > 4 mg/L
MIC ([4]; read-out: MIC (mg/L)^a / MEM): < 0.0312 mg/L

NC(=O)[C@@H]1CC[C@@H]2CN1C(=O)N2OS(=O)(=O)O [avibactam]
Kd [11]: 7.49 nM

KPC-2 (Klebsiella pneumoniae)
Km [5]: 110 ± 3 µM
kcat [5]: 65 ± 5 s⁻¹
kcat/Km [5]: 590000 ± 41000 M⁻¹ s⁻¹
Km [6]: 16 ± 1 µM
kcat [6]: 8 ± 0.5 s⁻¹
kcat/Km [6]: 500000 ± 50000 M⁻¹ s⁻¹
Km [7]: 590 ± 48 µM
kcat [7]: 3.27 ± 0.27 s⁻¹
kcat/Km [7]: 5500 ± 400 M⁻¹ s⁻¹
Km [8]: 310 ± 23 µM
kcat [8]: 4.7 ± 0.1 s⁻¹
kcat/Km [8]: 15000 ± 1200 M⁻¹ s⁻¹
Km [9]: 98 ± 9 µM
kcat [9]: 28 ± 2 s⁻¹
kcat/Km [9]: 290000 ± 10000 M⁻¹ s⁻¹
Km [10]: 793 ± 34 µM
kcat [10]: 7.7 ± 0.5 s⁻¹
kcat/Km [10]: 9700 ± 900 M⁻¹ s⁻¹
